# B1: 5KPH (parent)
# chain: EEKRQVKQVAKEKLLEQSPNSKVQVRRVQKQGNTIRVELELRTNGKKENYTVEVERQGNTWTVKRITRT
# Variants of: B1
# Test: folding stability dG (cDNA display proteolysis); higher = more stable
# Details: PBS, room temperature
row,Variant,folding stability dG [kcal/mol]
1,EEKRQVKQVAKEKDLEQSPNSKVQVRRVQKQGNTIRVELELRTNGKKENYTVEVERQGNTWTVKRITRT [L14D],1.74
2,EEKRQVKQVAKEKVLEQSPNSKVQVRRVQKQGNTIRVELELRTNGKKENYTVEVERQGNTWTVKRITRT [L14V],3.65
3,EEKRQVKQVAKEKFLEQSPNSKVQVRRVQKQGNTIRVELELRTNGKKENYTVEVERQGNTWTVKRITRT [L14F],2.92
4,EEKRQVKQVAKEKYLEQSPNSKVQVRRVQKQGNTIRVELELRTNGKKENYTVEVERQGNTWTVKRITRT [L14Y],1.95
5,EEKRQVKQVAKEKELEQSPNSKVQVRRVQKQGNTIRVELELRTNGKKENYTVEVERQGNTWTVKRITRT [L14E],1.7
6,EEKRQVKQVAKEKHLEQSPNSKVQVRRVQKQGNTIRVELELRTNGKKENYTVEVERQGNTWTVKRITRT [L14H],1.79
7,EEKRQVKQVAKEKALEQSPNSKVQVRRVQKQGNTIRVELELRTNGKKENYTVEVERQGNTWTVKRITRT [L14A],3.13
8,EEKRQVKQVAKEKWLEQSPNSKVQVRRVQKQGNTIRVELELRTNGKKENYTVEVERQGNTWTVKRITRT [L14W],2.29
9,EEKRQVKQVAKEKMLEQSPNSKVQVRRVQKQGNTIRVELELRTNGKKENYTVEVERQGNTWTVKRITRT [L14M],4.02
10,EEKRQVKQVAKEKRLEQSPNSKVQVRRVQKQGNTIRVELELRTNGKKENYTVEVERQGNTWTVKRITRT [L14R],2.08
11,EEKRQVKQVAKEKSLEQSPNSKVQVRRVQKQGNTIRVELELRTNGKKENYTVEVERQGNTWTVKRITRT [L14S],2.17
12,EEKRQVKQVAKEKKLEQSPNSKVQVRRVQKQGNTIRVELELRTNGKKENYTVEVERQGNTWTVKRITRT [L14K],2.18
13,EEKRQVKQVAKEKTLEQSPNSKVQVRRVQKQGNTIRVELELRTNGKKENYTVEVERQGNTWTVKRITRT [L14T],2.26
14,EEKRQVKQVAKEKILEQSPNSKVQVRRVQKQGNTIRVELELRTNGKKENYTVEVERQGNTWTVKRITRT [L14I],3.75
15,EEKRQVKQVAKEKNLEQSPNSKVQVRRVQKQGNTIRVELELRTNGKKENYTVEVERQGNTWTVKRITRT [L14N],1.92
16,EEKRQVKQVAKEKPLEQSPNSKVQVRRVQKQGNTIRVELELRTNGKKENYTVEVERQGNTWTVKRITRT [L14P],1.78
17,EEKRQVKQVAKEKQLEQSPNSKVQVRRVQKQGNTIRVELELRTNGKKENYTVEVERQGNTWTVKRITRT [L14Q],1.9
18,EEKRQVKQVAKEKGLEQSPNSKVQVRRVQKQGNTIRVELELRTNGKKENYTVEVERQGNTWTVKRITRT [L14G],2.07
19,EEKRQVKQVAKEKCLEQSPNSKVQVRRVQKQGNTIRVELELRTNGKKENYTVEVERQGNTWTVKRITRT [L14C],3.29
20,EEKRQVKQVAKEKLLCQSPNSKVQVRRVQKQGNTIRVELELRTNGKKENYTVEVERQGNTWTVKRITRT [E16C],3.27
21,EEKRQVKQVAKEKLLDQSPNSKVQVRRVQKQGNTIRVELELRTNGKKENYTVEVERQGNTWTVKRITRT [E16D],3.16
22,EEKRQVKQVAKEKLLAQSPNSKVQVRRVQKQGNTIRVELELRTNGKKENYTVEVERQGNTWTVKRITRT [E16A],3.8
23,EEKRQVKQVAKEKLLHQSPNSKVQVRRVQKQGNTIRVELELRTNGKKENYTVEVERQGNTWTVKRITRT [E16H],3.17
24,EEKRQVKQVAKEKLLIQSPNSKVQVRRVQKQGNTIRVELELRTNGKKENYTVEVERQGNTWTVKRITRT [E16I],3.04
25,EEKRQVKQVAKEKLLFQSPNSKVQVRRVQKQGNTIRVELELRTNGKKENYTVEVERQGNTWTVKRITRT [E16F],2.82
26,EEKRQVKQVAKEKLLGQSPNSKVQVRRVQKQGNTIRVELELRTNGKKENYTVEVERQGNTWTVKRITRT [E16G],3.25

row,Variant,folding stability dG [kcal/mol]
1,EEKRQVKQVAKEKLLLQSPNSKVQVRRVQKQGNTIRVELELRTNGKKENYTVEVERQGNTWTVKRITRT [E16L],3.47
2,EEKRQVKQVAKEKLLKQSPNSKVQVRRVQKQGNTIRVELELRTNGKKENYTVEVERQGNTWTVKRITRT [E16K],3.24
3,EEKRQVKQVAKEWLLEQSPNSKVQVRRVQKQGNTIRVELELRTNGKKENYTVEVERQGNTWTVKRITRT [K13W],3.48
4,EEKRQVKQVAKEILLEQSPNSKVQVRRVQKQGNTIRVELELRTNGKKENYTVEVERQGNTWTVKRITRT [K13I],4.04
5,EEKRQVKQVAKERLLEQSPNSKVQVRRVQKQGNTIRVELELRTNGKKENYTVEVERQGNTWTVKRITRT [K13R],3.61
6,EEKRQVKQVAKEPLLEQSPNSKVQVRRVQKQGNTIRVELELRTNGKKENYTVEVERQGNTWTVKRITRT [K13P],2.43
7,EEKRQVKQVAKEQLLEQSPNSKVQVRRVQKQGNTIRVELELRTNGKKENYTVEVERQGNTWTVKRITRT [K13Q],3.24
8,EEKRQVKQVAKEFLLEQSPNSKVQVRRVQKQGNTIRVELELRTNGKKENYTVEVERQGNTWTVKRITRT [K13F],3.99
9,EEKRQVKQVAKENLLEQSPNSKVQVRRVQKQGNTIRVELELRTNGKKENYTVEVERQGNTWTVKRITRT [K13N],2.71
10,EEKRQVKQVAKEYLLEQSPNSKVQVRRVQKQGNTIRVELELRTNGKKENYTVEVERQGNTWTVKRITRT [K13Y],4.07
11,EEKRQVKQVAKELLLEQSPNSKVQVRRVQKQGNTIRVELELRTNGKKENYTVEVERQGNTWTVKRITRT [K13L],3.42
12,EEKRQVKQVAKEELLEQSPNSKVQVRRVQKQGNTIRVELELRTNGKKENYTVEVERQGNTWTVKRITRT [K13E],2.79
13,EEKRQVKQVAKECLLEQSPNSKVQVRRVQKQGNTIRVELELRTNGKKENYTVEVERQGNTWTVKRITRT [K13C],3.62
14,EEKRQVKQVAKEMLLEQSPNSKVQVRRVQKQGNTIRVELELRTNGKKENYTVEVERQGNTWTVKRITRT [K13M],3.7
15,EEKRQVKQVAKEVLLEQSPNSKVQVRRVQKQGNTIRVELELRTNGKKENYTVEVERQGNTWTVKRITRT [K13V],4.12
16,EEKRQVKQVAKEGLLEQSPNSKVQVRRVQKQGNTIRVELELRTNGKKENYTVEVERQGNTWTVKRITRT [K13G],3.55
17,EEKRQVKQVAKEALLEQSPNSKVQVRRVQKQGNTIRVELELRTNGKKENYTVEVERQGNTWTVKRITRT [K13A],4.53
18,EEKRQVKQVAKETLLEQSPNSKVQVRRVQKQGNTIRVELELRTNGKKENYTVEVERQGNTWTVKRITRT [K13T],3.78
19,EEKRQVKQVAKEHLLEQSPNSKVQVRRVQKQGNTIRVELELRTNGKKENYTVEVERQGNTWTVKRITRT [K13H],3.57
20,EEKRQVKQVAKEDLLEQSPNSKVQVRRVQKQGNTIRVELELRTNGKKENYTVEVERQGNTWTVKRITRT [K13D],1.86
21,EEKRQVKQVAKESLLEQSPNSKVQVRRVQKQGNTIRVELELRTNGKKENYTVEVERQGNTWTVKRITRT [K13S],3.66
22,EEKRQVKQVAKEKLYEQSPNSKVQVRRVQKQGNTIRVELELRTNGKKENYTVEVERQGNTWTVKRITRT [L15Y],3.14
23,EEKRQVKQVAKEKLWEQSPNSKVQVRRVQKQGNTIRVELELRTNGKKENYTVEVERQGNTWTVKRITRT [L15W],2.92
24,EEKRQVKQVAKEKLSEQSPNSKVQVRRVQKQGNTIRVELELRTNGKKENYTVEVERQGNTWTVKRITRT [L15S],2.83
25,EEKRQVKQVAKEKLMEQSPNSKVQVRRVQKQGNTIRVELELRTNGKKENYTVEVERQGNTWTVKRITRT [L15M],3.7
26,EEKRQVKQVAKEKLEEQSPNSKVQVRRVQKQGNTIRVELELRTNGKKENYTVEVERQGNTWTVKRITRT [L15E],3.1

row,Variant,folding stability dG [kcal/mol]
1,EEKRQVKQVAKEKLPEQSPNSKVQVRRVQKQGNTIRVELELRTNGKKENYTVEVERQGNTWTVKRITRT [L15P],1.87
2,EEKRQVKQVAKEKLIEQSPNSKVQVRRVQKQGNTIRVELELRTNGKKENYTVEVERQGNTWTVKRITRT [L15I],3.02
3,EEKRQVKQVAKEKLQEQSPNSKVQVRRVQKQGNTIRVELELRTNGKKENYTVEVERQGNTWTVKRITRT [L15Q],3.42
4,EEKRQVKQVAKEKLVEQSPNSKVQVRRVQKQGNTIRVELELRTNGKKENYTVEVERQGNTWTVKRITRT [L15V],3.01
5,EEKRQVKQVAKEKLHEQSPNSKVQVRRVQKQGNTIRVELELRTNGKKENYTVEVERQGNTWTVKRITRT [L15H],2.98
6,EEKRQVKQVAKEKLAEQSPNSKVQVRRVQKQGNTIRVELELRTNGKKENYTVEVERQGNTWTVKRITRT [L15A],2.99
7,EEKRQVKQVAKEKLFEQSPNSKVQVRRVQKQGNTIRVELELRTNGKKENYTVEVERQGNTWTVKRITRT [L15F],3.03
8,EEKRQVKQVAKEKLKEQSPNSKVQVRRVQKQGNTIRVELELRTNGKKENYTVEVERQGNTWTVKRITRT [L15K],3.36
9,EEKRQVKQVAKEKLREQSPNSKVQVRRVQKQGNTIRVELELRTNGKKENYTVEVERQGNTWTVKRITRT [L15R],3.33
10,EEKRQVKQVAKEKLGEQSPNSKVQVRRVQKQGNTIRVELELRTNGKKENYTVEVERQGNTWTVKRITRT [L15G],2.53
11,EEKRQVKQVAKEKLTEQSPNSKVQVRRVQKQGNTIRVELELRTNGKKENYTVEVERQGNTWTVKRITRT [L15T],2.92
12,EEKRQVKQVAKEKLDEQSPNSKVQVRRVQKQGNTIRVELELRTNGKKENYTVEVERQGNTWTVKRITRT [L15D],2.07
13,EEKRQVKQVAKEKLNEQSPNSKVQVRRVQKQGNTIRVELELRTNGKKENYTVEVERQGNTWTVKRITRT [L15N],2.5
14,EEKRQVKQVAKEKLCEQSPNSKVQVRRVQKQGNTIRVELELRTNGKKENYTVEVERQGNTWTVKRITRT [L15C],3.13
15,EEKRQVKQVAKRKLLEQSPNSKVQVRRVQKQGNTIRVELELRTNGKKENYTVEVERQGNTWTVKRITRT [E12R],3.89
16,EEKRQVKQVAKQKLLEQSPNSKVQVRRVQKQGNTIRVELELRTNGKKENYTVEVERQGNTWTVKRITRT [E12Q],4.02
17,EEKRQVKQVAKYKLLEQSPNSKVQVRRVQKQGNTIRVELELRTNGKKENYTVEVERQGNTWTVKRITRT [E12Y],2.83
18,EEKRQVKQVAKTKLLEQSPNSKVQVRRVQKQGNTIRVELELRTNGKKENYTVEVERQGNTWTVKRITRT [E12T],3.6
19,EEKRQVKQVAKNKLLEQSPNSKVQVRRVQKQGNTIRVELELRTNGKKENYTVEVERQGNTWTVKRITRT [E12N],3.73
20,EEKRQVKQVAKLKLLEQSPNSKVQVRRVQKQGNTIRVELELRTNGKKENYTVEVERQGNTWTVKRITRT [E12L],3.47
21,EEKRQVKQVAKSKLLEQSPNSKVQVRRVQKQGNTIRVELELRTNGKKENYTVEVERQGNTWTVKRITRT [E12S],3.79
22,EEKRQVKQVAKKKLLEQSPNSKVQVRRVQKQGNTIRVELELRTNGKKENYTVEVERQGNTWTVKRITRT [E12K],3.83
23,EEKRQVKQVAKMKLLEQSPNSKVQVRRVQKQGNTIRVELELRTNGKKENYTVEVERQGNTWTVKRITRT [E12M],3.67
24,EEKRQVKQVAKWKLLEQSPNSKVQVRRVQKQGNTIRVELELRTNGKKENYTVEVERQGNTWTVKRITRT [E12W],2.92
25,EEKRQVKQVAKPKLLEQSPNSKVQVRRVQKQGNTIRVELELRTNGKKENYTVEVERQGNTWTVKRITRT [E12P],1.8
26,EEKRQVKQVAKVKLLEQSPNSKVQVRRVQKQGNTIRVELELRTNGKKENYTVEVERQGNTWTVKRITRT [E12V],3.21

# Reference: the MegaScale stability set (Tsuboyama et al. 2023)
